Experimental data taken from publication doi:10.1101/2023.09.11.557127.

Target: human wild-type 5-HT1AR with C-terminal ARMS2-PK2 (5-HT1AR-ARMS2-PK2) (human) (UniProt P08908)
Assay: split reporter

Sequence of UniProt P08908 (P08908 whole entry): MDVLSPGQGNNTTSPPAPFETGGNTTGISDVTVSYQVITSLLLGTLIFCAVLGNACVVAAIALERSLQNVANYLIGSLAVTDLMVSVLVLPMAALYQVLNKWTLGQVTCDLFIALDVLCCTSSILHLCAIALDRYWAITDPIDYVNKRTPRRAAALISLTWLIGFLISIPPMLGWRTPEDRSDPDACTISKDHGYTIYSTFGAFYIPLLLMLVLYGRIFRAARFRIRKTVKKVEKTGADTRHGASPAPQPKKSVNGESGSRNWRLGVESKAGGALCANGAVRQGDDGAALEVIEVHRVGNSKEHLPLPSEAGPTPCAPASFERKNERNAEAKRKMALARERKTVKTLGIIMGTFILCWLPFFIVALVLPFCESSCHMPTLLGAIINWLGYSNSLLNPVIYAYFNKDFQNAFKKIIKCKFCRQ

Emax of recruitment with ST171, elevated GRK2 (% of serotonin): 15% | Emax of recruitment with ST171, native GRK2 (% of serotonin): < 5% | Emax of recruitment with befiradol, elevated GRK2 (% of serotonin): 96% | Emax of recruitment with befiradol, native GRK2 (% of serotonin): 67%
Substance: β-arrestin-2-EA (from UniProt P32121 1-409) (natural protein)
